The source of these data is article doi:10.1101/2023.12.21.572875, “Structure of the human systemic RNAi defective transmembrane protein 1 (hSIDT1) reveals the conformational flexibility of its lipid binding domain” (bioRxiv, 2024).

The data set deals with the molecule itself. As to the kind of experiment: cryo-EM structure; single-particle cryo-EM of purified hSIDT1-GFP at 1 mg/ml in 0.5% digitonin, 25 mM Tris-HCl pH 7.5, 200 mM NaCl, with 100 uM fluorinated octyl-maltoside; no cholesterol or analogues; blotted at 18°C; C2 symmetry imposed.

B1: human systemic RNAi-defective transmembrane family member 1 (hSIDT1), full length, C-terminal GFP-Strep-tag-II fusion (natural protein, UniProt Q9NXL6 20-827, looked up)
chain: ASPGHPAKSPRQPPAPRRDPFDAARGADFDHVYSGVVNLSTENIYSFNYTSQPDQVTAVRVYVNSSSENLNYPVLVVVRQQKEVLSWQVPLLFQGLYQRSYNYQEVSRTLCPSEATNETGPLQQLIFVDVASMAPLGAQYKLLVTKLKHFQLRTNVAFHFTASPSQPQYFLYKFPKDVDSVIIKVVSEMAYPCSVVSVQNIMCPVYDLDHNVEFNGVYQSMTKKAAITLQKKDFPGEQFFVVFVIKPEDYACGGSFFIQEKENQTWNLQRKKNLEVTIVPSIKESVYVKSSLFSVFIFLSFYLGCLLVGFVHYLRFQRKSIDGSFGSNDGSGNMVASHPIAASTPEGSNYGTIDESSSSPGRQMSSSDGGPPGQSDTDSSVEESDFDTMPDIESDKNIIRTKMFLYLSDLSRKDRRIVSKKYKIYFWNIITIAVFYALPVIQLVITYQTVVNVTGNQDICYYNFLCAHPLGVLSAFNNILSNLGHVLLGFLFLLIVLRRDILHRRALEAKDIFAVEYGIPKHFGLFYAMGIALMMEGVLSACYHVCPNYSNFQFDTSFMYMIAGLCMLKLYQTRHPDINASAYSAYASFAVVIMVTVLGVVFGKNDVWFWVIFSAIHVLASLALSTQIYYMGRFKIDLGIFRRAAMVFYTDCIQQCSRPLYMDRMVLLVVGNLVNWSFALFGLIYRPRDFASYMLGIFICNLLLYLAFYIIMKLRSSEKVLPVPLFCIVATAVMWAAALYFFFQNLSSWEGTPAESREKNRECILLDFFDDHDIWHFLSATALFFSFLVLLTLDDDLDVVRRDQIPVF
modifications: lacks complex N-glycosylation; density for N-acetylglucosamine at the predicted N-glycosylation sites N57, N67, N83, N136, N282 (not modelled)
notes: human SIDT1 (systemic RNAi-defective transmembrane family member 1), full length, codon-optimized synthetic gene (GenScript); UniProt Q9NXL6 printed for the AlphaFold model used in model building; Homodimer with C2 symmetry; Not modelled in the structure: the first 40 residues, cytosolic loops CL1 and CL4, Q278-N286 and the C-terminal GFP; The native signal peptide may be removed in the mature …
In the case of B1, the “stoichiometry N” value was 2.

As usually defined, the stoichiometry N is a count of units in the complex or per binding partner.
